Molecular target: the molecule itself
Test: SEC + other: dynamic light scattering

B1: Skap55 (Src-kinase-associated phosphoprotein of 55 kDa) (natural protein, UniProt Q86WV1 1-359, looked up)
chain: MQAAALPEEIRWLLEDAEEFLAEGLRNENLSAVARDHRDHILRGFQQIKARYYWDFQPQGGDIGQDSSDDNHSGTLGLSLTSDAPFLSDYQDEGMEDIVKGAQELDNVIKQGYLEKKSKDHSFFGSEWQKRWCVVSRGLFYYYANEKSKQPKGTFLIKGYGVRMAPHLRRDSKKESCFELTSQDRRSYEFTATSPAEARDWVDQISFLLKDLSSLTIPYEEDEEEEEKEETYDDIDGFDSPSCGSQCRPTILPGSVGIKEPTEEKEEEDIYEVLPDEEHDLEEDESGTRRKGVDYASYYQGLWDCHGDQPDELSFQRGDLIRILSKEYNMYGWWVGELNSLVGIVPKEYLTTAFEVEER
**Q.** B1 was tested. Which “stoichiometry N” value did it give?
**A.** Its value is 2.

Source: PMC2628593 (Molecular cell, 2008)
